From US20070134249A1 (GENITOPE, published 2007) come the findings set out here.

Test [1] concerns the target T1, PIN149 fully human Id protein (HV3-23 / KV4-1) (human).
T1 construct: Recombinant patient-derived idiotype immunoglobulin used as antigen; also called PIN149 Id protein; Immunogen (for 3C9, 6C9, 10H7, 15E1); not shown: human immunoglobulin heavy chain constant region, isotype G3 (HCG3); human immunoglobulin kappa light chain constant region (KC)
The test is described as follows: SPR (BIACORE 2000); mAb captured on anti-mouse surface, fully human Id protein as analyte. As to the method:
(§1) Binding constants were also determined for three of the sequenced clones (3C9, 10H7, and 20H5), as well as for two additional clones (6C9 and 15E1). The association and disassociation rates were measured by surface plasmon resonance using a BIACORE 2000 machine.
(§2) In addition, based on ELISA results, PIN185 was used as a positive control Id protein for 10H7 and 15E1 and a negative control Id protein for 3C9 and 6C9 and PIN149 was used as a non-binding Id protein for 20H5. Each mAb was captured onto an anti-mouse surface and tested for binding to the fully human Id protein. Following the mAb capture phase of the assay for the (@2 ug/ml), the fully human Id proteins were all diluted to a starting concentration of 250 nM and tested in a three fold dilution series. Each concentration was tested in duplicate. The running buffer contained PBS plus 0.005% tween-20 and 0.1 mg/ml BSA as a carrier. Binding data were collected at 25° C. […] The other data sets all fit well to a single site interaction model.
In general terms: Surface plasmon resonance follows binding to a sensor surface in real time, without labels.

In test [2] the target is T2, PIN574 fully human Id protein (HV4-39 / LV1-40) (human).
T2 construct: Recombinant patient-derived idiotype immunoglobulin used as antigen, fully human form; also called Immunogen (for 20H5); not shown: human immunoglobulin heavy chain constant region, isotype G3 (HCG3); human immunoglobulin lambda light chain constant region (LC)
T2 sequence (VH, as listed by the source, chain 1 of 2): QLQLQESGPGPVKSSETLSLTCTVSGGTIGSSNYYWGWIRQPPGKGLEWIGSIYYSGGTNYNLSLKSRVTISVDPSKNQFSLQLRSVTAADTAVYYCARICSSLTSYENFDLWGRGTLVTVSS
T2 sequence (VL, as listed by the source, chain 2 of 2): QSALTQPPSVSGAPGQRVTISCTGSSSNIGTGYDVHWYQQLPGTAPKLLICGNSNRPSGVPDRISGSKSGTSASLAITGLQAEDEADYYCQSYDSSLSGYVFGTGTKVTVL
In words: SPR (BIACORE 2000); mAb captured on anti-mouse surface, fully human Id protein as analyte, 25 C. Here is the method:
as §1, §2

In a further test the target is T3, 604.
T3 construct: H4-34 L2-8; also called PIN604
The test is described as follows: ELISA. Details: key to grade: 0 = <0.5 OD, 1 = 0.5-1.0 OD, 4 = 1-4 OD. The source says:
(§3) Before specificity screening, all of the clonal immunogen-positive hybridoma supernatants were re-screened on the immunogen, a non-family member Id protein, and KLH, if animals were immunized with Id protein that has been conjugated KLH. As described above, this screen identifies HC-specific clones but not mAbs against the light chain constant region. Clones identified positive to the immunogen and KLH were […]. Those found positive to the immunogen but not to the non-family member Id protein or KLH were tittered on the immunogen. In addition to normalizing for different binding affinities and concentrations, each hybridoma supernatant was titered on the fully human form of the Id protein used as the immunogen(s) for the V regions. The titer or dilution resulting in an ELISA absorbance of 2.5 to 3 OD after 30 min. incubation time was then used. Hybridoma specificity was determined by screening against available Id proteins expressing the same HV and KV or LV as well as different HV, KV and LV. The final ELISA results are expressed as follows: 0 (<0.5 OD), 1 (0.5-1.0 OD), or 4 (1-4 OD). Positive hybridoma supernatants are categorized according to specificity: anti-Id, anti-constant region (HC, KC or LC), or V region (HV, KV, LV family or family member).
(§4) In general, the fully human Id protein or proteins containing the immunogen V regions were coated onto 96-well ELISA plates at 2.5-5 ug/mL in carbonate buffer pH 9.6 and incubated at 4° C. for up to 14 days. On the day of the ELISA, plates were brought to RT and blocked with Tris-Tween-20, pH 7.6 for 15-60 min. at RT. Following a NaCl and Triton X-100 wash, diluted hybridoma cell culture supernatants were incubated overnight at 4° C. Hybridoma supernatant dilutions ranged from 1:2 to 1:25 and were prepared in PBS with 5% BSA. Plates were washed and incubated with HRP-conjugated goat anti-mouse IgG-specific detecting antibody. A chromogenic substrate (TMB) was used to measure the amount of mouse antibody bound to each well. The reaction was stopped at or before 30 minutes with IN H2SO4 and plates were read immediately. Absorbency readings at 450 nm ranging between 0-4 OD and using Molecular Devices plate reader and SOFTMAX PRO software.
(In an ELISA, binding on a coated surface is turned into a signal by an enzyme label.)

The target in the next test is T4, 746.
T4 construct: H4-39 L2-8; also called PIN746
The test is described as follows: ELISA. The arrangement: key to grade: 0 = <0.5 OD, 1 = 0.5-1.0 OD, 4 = 1-4 OD.
Description: as §3, §4

Test [3] addresses T2, PIN574 fully human Id protein (HV4-39 / …). The test is described as follows: ELISA. The arrangement: key to grade: 0 = <0.5 OD, 1 = 0.5-1.0 OD, 4 = 1-4 OD.
Description: as §3, §4

A further test deals with T5, 662.
T5 construct: fully human Id protein; also called PIN662
T5 sequence (heavy, as listed by the source): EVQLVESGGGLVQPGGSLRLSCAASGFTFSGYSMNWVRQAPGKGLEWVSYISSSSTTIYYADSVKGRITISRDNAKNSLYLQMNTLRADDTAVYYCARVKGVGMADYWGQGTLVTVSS
In words: ELISA. Details: key to grade: 0 = <0.5 OD, 1 = 0.5-1.0 OD, 4 = 1-4 OD.
Description: as §3, §4

A further test has as its target T6, 116.
T6 construct: fully human Id protein; also called PIN116
In words: ELISA. The arrangement: key to grade: 0 = <0.5 OD, 1 = 0.5-1.0 OD, 4 = 1-4 OD.
Description: as §3, §4

The next test concerns the target T7, 647.
T7 construct: fully human Id protein; also called PIN647
The test is described as follows: ELISA. The arrangement: key to grade: 0 = <0.5 OD, 1 = 0.5-1.0 OD, 4 = 1-4 OD.
Description: as §3, §4

The next test deals with T8, 625.
T8 construct: H4-61 L2-8; also called PIN625
In words: ELISA. The arrangement: key to grade: 0 = <0.5 OD, 1 = 0.5-1.0 OD, 4 = 1-4 OD.
Description: as §3, §4

A further test addresses T9, 787.
T9 construct: also called PIN787
In words: ELISA. The arrangement: key to grade: 0 = <0.5 OD, 1 = 0.5-1.0 OD, 4 = 1-4 OD.
Description: as §3, §4

For the next test, the target named is T10, 710.
T10 construct: H1-8 L2-8; also called PIN710
The test is described as follows: ELISA. Details: key to grade: 0 = <0.5 OD, 1 = 0.5-1.0 OD, 4 = 1-4 OD.
Description: as §3, §4

The next test addresses T11, 559.
T11 construct: H3-15 L2-23; also called PIN559
The test is described as follows: ELISA. Details: key to grade: 0 = <0.5 OD, 1 = 0.5-1.0 OD, 4 = 1-4 OD.
Description: as §3, §4

The next test deals with T12, 552.
T12 construct: H1-18 L2-8; also called PIN552
In words: ELISA. The arrangement: key to grade: 0 = <0.5 OD, 1 = 0.5-1.0 OD, 4 = 1-4 OD.
Description: as §3, §4

T6 sequence (VH, as listed by the source, chain 1 of 2): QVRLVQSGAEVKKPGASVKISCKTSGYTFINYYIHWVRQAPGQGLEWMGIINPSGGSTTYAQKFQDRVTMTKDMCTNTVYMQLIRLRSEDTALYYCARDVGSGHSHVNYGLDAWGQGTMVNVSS
T6 sequence (V domain, as listed by the source, chain 2 of 2): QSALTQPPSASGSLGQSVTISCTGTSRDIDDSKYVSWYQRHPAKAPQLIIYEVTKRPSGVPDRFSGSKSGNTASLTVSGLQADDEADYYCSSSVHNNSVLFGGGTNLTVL
T7 sequence (VH, as listed by the source, chain 1 of 2): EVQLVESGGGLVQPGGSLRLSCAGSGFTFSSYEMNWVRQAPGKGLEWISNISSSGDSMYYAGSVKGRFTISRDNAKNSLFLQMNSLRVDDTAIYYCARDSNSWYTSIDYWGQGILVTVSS
T7 sequence (VL, as listed by the source, chain 2 of 2): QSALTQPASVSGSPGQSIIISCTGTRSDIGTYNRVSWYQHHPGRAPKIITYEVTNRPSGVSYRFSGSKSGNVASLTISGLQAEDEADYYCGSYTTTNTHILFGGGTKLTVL
T1 sequence (VH, as listed by the source, chain 1 of 2): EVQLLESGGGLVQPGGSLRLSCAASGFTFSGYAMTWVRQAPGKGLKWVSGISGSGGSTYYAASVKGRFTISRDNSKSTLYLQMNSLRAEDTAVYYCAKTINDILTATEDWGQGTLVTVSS
T1 sequence (VL, as listed by the source, chain 2 of 2): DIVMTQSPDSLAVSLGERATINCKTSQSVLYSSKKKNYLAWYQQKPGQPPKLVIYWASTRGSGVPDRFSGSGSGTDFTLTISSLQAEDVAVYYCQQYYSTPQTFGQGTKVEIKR

B1: mAb clone 20H5 (antibody, V domains shown)
VH: QVQLKESGPDLVAPSQSLSITCTVSGFSLTSYGVHWVRQPPGKGLEWLVVIWSDGSTTNNSPLKSRLSISKDNSKSQVFLKMNSLQTDDTAMYYCARHWGTTVVDAMDYWGQGTSVTVSS
VL: DIQMTQTTSSLSASLGDRVIISCRASQDIRNYLNWYQQKPDGTVKLLIYYTSQLHSGVPSRFSGSGSGTDYSLTINNLSEQEDIATYFCQQYDTLPWTFGGGTKLEIKR
notes: Mouse hybridoma mAb, fusion 10 (immunogen fully human PIN574 Id protein)
Turning to B1, the binding result in [1] was “no binding”. Further, in test [2], the Kd (in general, the free concentration of one partner at which half of the binding sites on the other are occupied at equilibrium, for simple one-to-one binding) came out at 1.92 nM; the dissociation rate constant (koff) – broadly, the first-order rate constant of dissociation – came out at 0.000146 s⁻¹; the kon (as a rule, the second-order rate constant of association) worked out at 75900 M⁻¹ s⁻¹.

B2: mAb clone 15E8 (antibody, V domains shown)
VH: QVQLQQPGAELVMPGASVKMSCKASGYTFTDYWMHWVKQRPGQGLEWIGTIDTSDSYTNYNQKFKGKATLTVDESSSTAYMQLSSLTSEDSAVYYCVRWKKYGNYFFDYWGQGTTLTVSS
VL: DIVMTQSHKFMSTSVGDRVSITCKASQDVNTAVAWYQQKPGQSPKLLIYWASTRHTGVPDRFTGSGSGTDFSLTISSVQAEDLGLYYCQQCYSTPYAFGGGTKLEIKR
notes: Mouse hybridoma mAb, fusion 16 (immunogen PIN116)
For the molecule B2, the grade amounted to 4 in the test with 604; 4 with 746; 4 with 662; 4 in the test with 116; 4 with 625; 1 with 787. Moreover, the grade with 710, with 559 and with 552 was 4 each time. In addition, the binding result (in test [3]; with 647) was “no binding” in each case.
